In this assay the target is T1, D2-KIR3DL2-IgG1-Fc (human, UniProt P43630 220-316, limits assumed).
T1 construct: domain: D2; also called D2 domain of KIR3DL2 as IgG1-Fc protein
The experiment in a line: flow cytometry on HEK-293 cells expressing FLAG-KIR3DX1rep, anti-IgG-Fc detection (Fig. 4C). For orientation: Flow cytometry measures light scatter and fluorescence of single cells or particles in a stream.

T1 sequence (P43630 other isoform, or with tags, fused parts or gaps limits assumed): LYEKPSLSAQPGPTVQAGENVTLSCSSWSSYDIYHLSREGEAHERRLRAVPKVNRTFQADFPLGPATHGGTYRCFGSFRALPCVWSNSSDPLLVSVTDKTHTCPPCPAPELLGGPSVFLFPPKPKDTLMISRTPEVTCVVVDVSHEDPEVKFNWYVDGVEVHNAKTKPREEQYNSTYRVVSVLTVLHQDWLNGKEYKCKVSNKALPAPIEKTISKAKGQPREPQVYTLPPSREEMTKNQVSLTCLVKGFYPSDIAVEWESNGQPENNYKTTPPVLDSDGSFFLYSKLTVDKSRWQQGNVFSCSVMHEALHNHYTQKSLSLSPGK

B1: FLAG-KIR3DX1rep (receptor)
chain: QKICPHAGAQDKFSLSAWPSPVVPLGGRVTLSCHSHLRFVIWTIFQTTGTRSHELHTGLSNNITISPVTPEHAGTYRCVGIYKHASKWSAESNSLKIIVTGLFTKPSISAHPSSLVHAGARVSLRCHSELAFDEFILYKEGHIQHSQQLDQGMEAGIHYVEAVFSMGPVTPAHAGAYRCCGCFSHSRYEWSAPSDPLDIVITGKYKKPSLSTQVDPMMRLGEKLTLFCSSEISFDQYHLFRHGVAHGQWLSGGQRHREAFQANFSVGRATPVPGGTYRCYGSFNDSPYEWSAPSDPLQLYTTGNTKSTPLSFTESTPESDTPRPQGQSSNLHMLTGLSVAIISIGVCLSAFIGFWCYIKYHTTMANTEPTEGQRTDEEEPAAEETQEIIYAQLNHQALSQTGFPPASQCPHYLSEDPSIYITVHQAQAEARAAPSLWHKGHPR
notes: also called FLAG-tagged full-length KIR3DX1-repaired; full-length KIR3DX1 in its repaired form as cell surface receptor
Regarding B1, the binding result is given as “no binding”.

(Values after patent publication EP4509523A1 (Deutsches Primatenzentrum GmbH (DPZ), dated 2025).)
